The source of these data is patent US20040137579A1, “Protein complexes having factor VIII:C activity and production thereof” (Chiron Corporation, published 2004).

Assay [1] addresses Factor VIII:C Mr 80 K polypeptide (FVIII-LC) encoded by pSVF8-80 (human) (UniProt P00451).
Assay [2] has the same target. The source holds these as a separate data set.
For assay [3] the target is unchanged. This is another data set of the same source.
Assay [4] shares this target. This is another data set of the same source.
Assay [5] has the same target. This is another data set of the same source.
The target is the same in assay [6]. This is another data set of the same source.
The target of assay [7] is T1, Factor VIII:C 80 K light chain encoded by pSVF8-80S (human, UniProt P00451).
T1 chain: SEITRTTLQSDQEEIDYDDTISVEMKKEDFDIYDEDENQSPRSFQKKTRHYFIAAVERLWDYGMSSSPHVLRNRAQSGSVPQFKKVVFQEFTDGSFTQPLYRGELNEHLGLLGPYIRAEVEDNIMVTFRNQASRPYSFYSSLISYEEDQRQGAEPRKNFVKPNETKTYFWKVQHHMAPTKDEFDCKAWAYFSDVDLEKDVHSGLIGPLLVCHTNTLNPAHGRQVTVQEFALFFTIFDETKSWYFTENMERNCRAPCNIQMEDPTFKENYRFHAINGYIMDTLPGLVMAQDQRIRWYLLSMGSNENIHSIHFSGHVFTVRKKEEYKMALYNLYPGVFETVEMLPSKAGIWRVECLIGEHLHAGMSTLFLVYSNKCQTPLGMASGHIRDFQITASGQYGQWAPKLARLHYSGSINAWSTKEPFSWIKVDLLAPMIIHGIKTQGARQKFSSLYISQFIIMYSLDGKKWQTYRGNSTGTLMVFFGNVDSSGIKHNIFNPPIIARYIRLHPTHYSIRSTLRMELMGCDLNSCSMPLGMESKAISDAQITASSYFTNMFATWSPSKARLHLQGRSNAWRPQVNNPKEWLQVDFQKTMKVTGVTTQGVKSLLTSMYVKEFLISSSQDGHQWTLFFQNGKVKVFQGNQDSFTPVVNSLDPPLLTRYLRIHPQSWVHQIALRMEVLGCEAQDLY
The assay can be described thus: cell-based or functional assay.

Assay [8] has as its target T2, Factor VIII:C 80 K light chain encoded by pSVF8-80A (human, UniProt P00451).
T2 chain: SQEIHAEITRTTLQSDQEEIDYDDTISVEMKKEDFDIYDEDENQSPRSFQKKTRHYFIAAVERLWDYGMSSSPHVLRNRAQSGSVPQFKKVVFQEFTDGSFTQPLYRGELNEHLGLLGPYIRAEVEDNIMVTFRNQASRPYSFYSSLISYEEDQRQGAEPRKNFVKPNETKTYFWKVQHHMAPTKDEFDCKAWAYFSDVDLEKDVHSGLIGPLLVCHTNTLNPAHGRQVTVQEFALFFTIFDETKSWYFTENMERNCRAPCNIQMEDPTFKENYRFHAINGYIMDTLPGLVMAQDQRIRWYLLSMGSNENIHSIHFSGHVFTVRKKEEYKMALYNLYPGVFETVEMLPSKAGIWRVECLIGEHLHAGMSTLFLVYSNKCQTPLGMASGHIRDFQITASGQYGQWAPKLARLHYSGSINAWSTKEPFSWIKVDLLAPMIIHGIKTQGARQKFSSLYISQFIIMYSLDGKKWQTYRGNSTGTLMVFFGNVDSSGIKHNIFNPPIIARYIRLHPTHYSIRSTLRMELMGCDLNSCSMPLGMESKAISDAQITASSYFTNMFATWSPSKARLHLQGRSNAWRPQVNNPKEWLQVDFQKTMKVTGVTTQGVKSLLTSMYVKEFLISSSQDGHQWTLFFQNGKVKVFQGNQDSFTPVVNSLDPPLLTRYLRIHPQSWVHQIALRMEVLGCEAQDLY
Nature of the assay: cell-based or functional assay.

For assay [9], the target named is T3, Factor VIII:C 80 K light chain encoded by pSVF8-80KG (human, UniProt P00451).
T3 chain: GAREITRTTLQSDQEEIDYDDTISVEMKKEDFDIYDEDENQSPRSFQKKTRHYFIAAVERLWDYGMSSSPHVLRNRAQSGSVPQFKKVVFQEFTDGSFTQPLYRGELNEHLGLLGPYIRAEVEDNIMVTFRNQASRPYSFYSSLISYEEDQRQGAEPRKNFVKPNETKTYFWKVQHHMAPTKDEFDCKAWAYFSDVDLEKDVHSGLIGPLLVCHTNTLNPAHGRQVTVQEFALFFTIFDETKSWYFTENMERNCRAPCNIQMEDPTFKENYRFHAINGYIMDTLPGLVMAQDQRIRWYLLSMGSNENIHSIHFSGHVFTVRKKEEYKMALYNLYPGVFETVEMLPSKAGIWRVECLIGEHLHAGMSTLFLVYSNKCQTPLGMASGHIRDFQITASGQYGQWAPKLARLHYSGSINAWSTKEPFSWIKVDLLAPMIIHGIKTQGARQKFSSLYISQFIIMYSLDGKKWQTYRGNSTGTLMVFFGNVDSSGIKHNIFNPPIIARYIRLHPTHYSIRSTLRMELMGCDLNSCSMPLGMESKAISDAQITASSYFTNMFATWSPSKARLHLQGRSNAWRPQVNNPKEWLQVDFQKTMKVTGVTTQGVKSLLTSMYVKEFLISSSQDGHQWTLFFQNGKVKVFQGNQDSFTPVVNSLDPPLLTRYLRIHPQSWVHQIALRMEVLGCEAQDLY
Nature of the assay: cell-based or functional assay.

The target of assay [10] is Factor VIII:C light chain encoded by pSVF8-80AT (alpha1-antitrypsin signal peptide) (human, UniProt P00451). Nature of the assay: cell-based or functional assay.

As to “Factor VIII:C 92 K heavy chain encoded by pSVF8-92C (from UniProt P00451)”, in assay [1], the mU COATEST/mL (stable CHO cell line 11-D6) is 43 mU/mL. The COA (COATEST) mU/mL, cotransfected COS7 cells in [2] is 46 mU/mL.

With “1416 amino acid Factor VIII:C heavy chain encoded by pSVF8-170 (from UniProt P00451)”, the ratio of RIA to COATEST activity in assay [3] worked out at 1.8.

Turning to “Factor VIII:C 92 K heavy chain encoded by pCMVF8-92/6x (from UniProt P00451)”, in assay [2], the COA (COATEST) mU/mL, cotransfected COS7 cells was found to be 87 mU/mL.

Consider “1323 amino acid Factor VIII:C heavy chain encoded by pSVF8-160 (from UniProt P00451)”, for which the ratio of RIA to COATEST activity in assay [3] is 1.8.

As to “Factor VIII:C Mr 92 K heavy chain encoded by pSVF8-92E (from UniProt P00451)”, in [3], the ratio of RIA to COATEST activity worked out at 7.2. The molecule further yielded a COATEST (mU/mL) (stable CHO clone 10C2-D2, 0.05 uM methotrexate) in [4] of 496 mU/mL. The molecule also showed a Factor VIII:C activity of medium of COS7 cells cotransfected with pSVF8-80 in assay [5] of 1.65 fold.

In [6], “Factor VIII:C Mr 92 K polypeptide (FVIII-HC) encoded by pSVF8-92 (from UniProt P00451)” had a COATEST Activity mU/mL (medium of cotransfected COS7 cells) of 20.4 mU/mL; a COATEST Activity mU/mL (supernatants of separate transfectants mixed) of under 0.1 mU/mL; a Coagulation Activity mU/mL (one-stage assay, medium of cotransfected COS7 cells) of 22.5 mU/mL; a Coagulation Activity mU/mL (supernatants of separate transfectants mixed) of under 0.9 mU/mL.

B1: purified recombinant FVIII:C heavy chains (from full-length human FVIII:C) (other)
chain: ATRRYYLGAVELSWDYMQSDLGELPVDARFPPRVPKSFPFNTSVVYKKTLFVEFTDHLFNIAKPRPPWMGLLGPTIQAEVYDTVVITLKNMASHPVSLHAVGVSYWKASEGAEYDDQTSQREKEDDKVFPGGSHTYVWQVLKENGPMASDPLCLTYSYLSHVDLVKDLNSGLIGALLVCREGSLAKEKTQTLHKFILLFAVFDEGKSWHSETKNSLMQDRDAASARAWPKMHTVNGYVNRSLPGLIGCHRKSVYWHVIGMGTTPEVHSIFLEGHTFLVRNHRQASLEISPITFLTAQTLLMDLGQFLLFCHISSHQHDGMEAYVKVDSCPEEPQLRMKNNEEAEDYDDDLTDSEMDVVRFDDDNSPSFIQIRSVAKKHPKTWVHYIAAEEEDWDYAPLVLAPDDRSYKSQYLNNGPQRIGRKYKKVRFMAYTDETFKTREAIQHESGILGPLLYGEVGDTLLIIFKNQASRPYNIYPHGITDVRPLYSRRLPKGVKHLKDFPILPGEIFKYKWTVTVEDGPTKSDPRCLTRYYSSFVNMERDLASGLIGPLLICYKESVDQRGNQIMSDKRNVILFSVFDENRSWYLTENIQRFLPNPAGVQLEDPEFQASNIMHSINGYVFDSLQLSVCLHEVAYWYILSIGAQTDFLSVFFSGYTFKHKMVYEDTLTLFPFSGETVFMSMENPGLWILGCHNSDFRNRGMTALLKVSSCDKNTGDYYEDSYEDISAYLLSKNNAIEPR
With B1, the “Percent Control Activity (COATEST after in vitro combination of purified chains)” value in assay [7] was 51 percent of control activity; in assay [8], 92 percent of control activity; in assay [9] it was 233 percent of control activity; in assay [10] it was 86 percent of control activity.
